# According to patent publication US20080213817:
# How the values were obtained:
# [1] = tested on: GST-c-Jun fusion protein [GST: P08515]
# E3 ubiquitin ligase Itch = E3 ubiquitin ligase Itch (UniProt Q8C863)
# E3 ubiquitin ligase Itch (UniProt Q8C863), sequence (Q8C863 2-864): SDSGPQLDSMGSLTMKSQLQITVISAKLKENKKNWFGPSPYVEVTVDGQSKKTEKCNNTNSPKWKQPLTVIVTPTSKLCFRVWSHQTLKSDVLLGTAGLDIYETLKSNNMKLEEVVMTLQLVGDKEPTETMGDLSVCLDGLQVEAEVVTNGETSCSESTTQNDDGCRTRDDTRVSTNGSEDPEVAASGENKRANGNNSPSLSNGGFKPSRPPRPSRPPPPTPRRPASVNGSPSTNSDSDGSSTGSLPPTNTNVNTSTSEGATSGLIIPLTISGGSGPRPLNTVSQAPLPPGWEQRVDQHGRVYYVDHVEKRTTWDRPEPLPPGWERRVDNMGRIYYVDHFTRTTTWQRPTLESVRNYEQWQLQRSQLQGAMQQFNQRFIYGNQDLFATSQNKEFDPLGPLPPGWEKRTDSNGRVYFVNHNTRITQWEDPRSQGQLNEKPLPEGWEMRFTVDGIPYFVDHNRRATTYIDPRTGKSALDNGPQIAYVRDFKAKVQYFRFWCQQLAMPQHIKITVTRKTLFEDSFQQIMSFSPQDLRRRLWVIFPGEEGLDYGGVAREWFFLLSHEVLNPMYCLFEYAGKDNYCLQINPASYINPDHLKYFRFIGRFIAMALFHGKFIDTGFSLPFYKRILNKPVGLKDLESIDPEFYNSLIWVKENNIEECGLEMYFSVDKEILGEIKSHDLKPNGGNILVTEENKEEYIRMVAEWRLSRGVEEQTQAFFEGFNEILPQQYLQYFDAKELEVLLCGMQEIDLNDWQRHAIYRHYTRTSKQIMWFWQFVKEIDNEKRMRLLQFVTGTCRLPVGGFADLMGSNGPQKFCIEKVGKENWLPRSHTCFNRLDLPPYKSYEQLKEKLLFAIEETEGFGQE
# GST-c-Jun fusion protein [GST: P08515], sequence (P08515 whole entry, looked up, the tested form may be a part): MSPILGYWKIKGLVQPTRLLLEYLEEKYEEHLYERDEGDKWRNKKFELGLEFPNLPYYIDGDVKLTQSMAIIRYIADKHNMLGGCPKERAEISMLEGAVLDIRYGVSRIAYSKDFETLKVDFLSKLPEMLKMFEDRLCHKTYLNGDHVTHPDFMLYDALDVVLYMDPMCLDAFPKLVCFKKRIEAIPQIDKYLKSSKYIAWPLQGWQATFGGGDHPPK
# E3 ubiquitin ligase Itch, sequence (chain, as listed by the source): as the sequence (Q8C863 2-864) above
Substance,"polyubiquitination of c-Jun (in vitro ubiquitination assay, immunoblot with anti-c-Jun) [1]","Itch phosphorylation (in vitro kinase reaction with [gamma-32P]ATP, autoradiography) (E3 ubiquitin ligase Itch)"
E3 ubiquitin ligase Itch,Itch isolated from primary T cells mediated polyubiquitination of c-Jun in a manner dependent on E1 and E2,
"c-Jun N-terminal kinase 1 (JNK1), active",,Incubation of Itch with active JNK1 also led to its efficient phosphorylation
